Experimental data reported in patent US20210179680A1, “POLYPEPTIDE, DERIVATIVES THEREOF, AND APPLICATION THEREOF IN PREPARATION OF DRUGS HAVING RESISTANCE TO PULMONARY FIBROSIS” (priority 2016, published 2021).
Values belong to the binder of their own block, whether it stands above or below them. Bridge positions count the residues as written; N and C are the ends. Square brackets hold non-standard residues; d marks the D form. Ends that are not written are not given here. S5 = C=CCCC[C@](C)(N)C(=O)O

Target: T1, Purified TRB3 protein (purchased from RD) (UniProt Q96RU7 1-358, limits assumed)
T1 construct: Amine-coupled to the Biacore chip; also called Tribbles Homologue 3
T1 sequence (looked up): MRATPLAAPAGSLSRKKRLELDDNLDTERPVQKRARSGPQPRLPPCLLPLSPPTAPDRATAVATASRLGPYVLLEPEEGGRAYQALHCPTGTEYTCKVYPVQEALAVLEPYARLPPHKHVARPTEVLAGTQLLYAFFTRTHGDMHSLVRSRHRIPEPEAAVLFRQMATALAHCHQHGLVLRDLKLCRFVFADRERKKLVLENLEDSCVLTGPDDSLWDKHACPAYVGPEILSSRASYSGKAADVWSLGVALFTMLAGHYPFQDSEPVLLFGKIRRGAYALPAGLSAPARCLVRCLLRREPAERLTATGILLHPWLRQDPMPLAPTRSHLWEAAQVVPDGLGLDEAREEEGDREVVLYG
Assay: SPR, Biacore T200, TRB3 amine-coupled to chip, peptide as analyte, 25° C.
Experimental: The surface plasmon resonance experiment was carried out in a surface plasmon resonator Biacore T200, and the procedure was carried out in accordance with the instructions of the plasma resonator Biacore T200. Specific steps are as follows:
1. Purified TRB3 protein (purchased from RD) was coupled to a CMS chip (purchased from GE) by amidogen, and the unbound protein was eluted at a flow rate of 10 μL/min. The surface of the chip was equilibrated for 2 hours. Among them, the specific steps of amidogen coupling, elution and equilibration refer to the relevant instruction of GE's CMS chip.
2. […] The buffer used was HBS-EP buffer [0.01 M HEPES, 0.15 M NaCl, 3 mM EDTA and 0.005% (w/w) surfactant TWEEN20]. Biacore T200's built-in analysis software was used to simulate the binding curves of different concentrations of peptides to TRB3. FIG. 4-1, 4-2 and Table 1 illustrate that peptides MR2, S1, S2, S3, S4, S5, S6, S7, S8, S9, S10 and S11 can all interacted with the TRB3 protein.

Kd: 9.63 nM
Binder: HLM[S5]CFT[S5]AKKLKKR (staple 4-8, Stapled variant of MR2) [polypeptide S4]

Kd: 29.3 nM
Binder: HLMACFTCA[S5]KLK[S5]R (staple 10-14; cysteine pairing not given here, Stapled variant of MR2) [polypeptide S10]

Kd: 8.95 nM
Binder: HLMACF[S5]CAK[S5]LKKR (staple 7-11; cysteine pairing not given here, Stapled variant of MR2) [polypeptide S7]

Kd: 42.7 nM
Binder: HL[S5]ACF[S5]CAKKLKKR (staple 3-7; cysteine pairing not given here, Stapled variant of MR2) [polypeptide S3]

Kd: 11.5 nM
Binder: HLMA[S5]FTC[S5]KKLKKR (staple 5-9, Stapled variant of MR2) [polypeptide S5]

Kd: 37.7 nM
Binder: HLMACFTCAK[S5]LKK[S5] (staple 11-15; cysteine pairing not given here, Stapled variant of MR2) [polypeptide S11]

Kd: 20.2 nM
Binder: [S5]LMA[S5]FTCAKKLKKR (staple 1-5, Stapled variant of MR2) [polypeptide S1]

Kd: 19.1 nM
Binder: H[S5]MAC[S5]TCAKKLKKR (staple 2-6; cysteine pairing not given here, Stapled variant of MR2) [polypeptide S2]

Kd: 37.1 nM
Binder: HLMACFTC[S5]KKL[S5]KR (staple 9-13; cysteine pairing not given here, Stapled variant of MR2) [polypeptide S9]

Kd: 35.9 nM
Binder: HLMACFT[S5]AKK[S5]KKR (staple 8-12, Stapled variant of MR2) [polypeptide S8]

Kd: 43.3 nM
B1: polypeptide MR2 (peptide)
peptide: HLMACFTCAKKLKKR
notes: Synthetic unmodified 15-mer; also called MR2 polypeptide

Kd: 49.6 nM
Binder: HLMAC[S5]TCA[S5]KLKKR (staple 6-10; cysteine pairing not given here, Stapled variant of MR2) [polypeptide S6]
